The values that follow come from paper doi:10.1101/2025.06.11.659033 (bioRxiv, 2025).

Read-outs that look alike come from different tables or passages of the source.

Series [1] concerns the molecule itself. Put plainly: SEC.
Series [2] concerns the molecule itself. The series can be described thus: SEC. The source holds these as a separate data set. For orientation: Size exclusion chromatography separates by hydrodynamic size, large species first.

B1: HDPpf-N4 (Δ37N, 3 C-terminal residues deleted) (domain or fragment, Plasmodium falciparum, UniProt Q8IL04 38-202, looked up)
chain: VYWCFEHKPVKRTIINLIYSHNELKIFSNLLNHPTVGSSLIHELSLDGPYTAFFPSNEAMQLINIESFNKLYNDENKLSEFVLNHVTKEYWLYRDLYGSSYQPWLMYNEKREAPEKLRNLLNNDLIVKIEGEFKHCNHSIYLNGSKIIRPNMKCHNGVVHIVDKP
One may read the stoichiometry N as a count of units in the complex or per binding partner. Regarding B1, the “stoichiometry N” value in the series “SEC [1]” was found to be 2.

B2: HDPpf-C10 (Δ44N, C-terminal 6His) (domain or fragment, Plasmodium falciparum, UniProt Q8IL04 45-205, looked up)
chain: KPVKRTIINLIYSHNELKIFSNLLNHPTVGSSLIHELSLDGPYTAFFPSNEAMQLINIESFNKLYNDENKLSEFVLNHVTKEYWLYRDLYGSSYQPWLMYNEKREAPEKLRNLLNNDLIVKIEGEFKHCNHSIYLNGSKIIRPNMKCHNGVVHIVDKPIIF
For B2, in “SEC [2]”, the “stoichiometry N” value stood at 2.
